The values that follow come from paper PMC8567202, “Phosphoinositide-binding activity of Smad2 is essential for its function in TGF-β signaling” (The Journal of Biological Chemistry, 2021).

Experiment [1] in a line: SPR membrane binding to POPC/POPS/PI(3)P vesicles. The conditions noted are these: POPC/POPS/PI(3)P (77:20:3). An excerpt:
(§1) It has been generally thought that Smad2 and Smad3 are targeted to the activated TGF-β signaling complex by direct interaction with TβRI ([1], [2]) or via SARA ([7]). However, it has been shown that many cytosolic proteins that are targeted to membrane proteins or membrane-anchored signaling complexes have affinity for membrane lipids ([14]), phosphoinositides (PtdInsPs) in particular, and that their membrane recruitment is mediated by coincident lipid–protein and protein–protein interactions ([15], [16]). […] We thus measured the binding of bacterially expressed Smad2 to large unilamellar vesicles (LUVs) containing various lipids by surface plasmon resonance (SPR) analysis ([19], [20]). Lipid selectivity determined by SPR analysis is typically reported as the relative resonance unit (RU) values for different lipids at a given protein concentration ([21], [22]). […] We thus estimated RUmax for different lipid species by employing the highest protein concentration experimentally feasible (e.g., 1 μM) and determined RU/RUmax for different lipids at the protein concentration that allows robust comparison (e.g., 100 nM). Once the lipid selectivity has been determined by this semiquantitative approach, we then rigorously determined and compared Kd values for selected lipids for more accurate quantitative determination of lipid selectivity. […]

A short description of a further experiment: SPR PtdInsP selectivity. Format: binding. The conditions noted are these: RU/RUmax, 100 nM protein.
Source text: as §1

The test system of another experiment is HeLa cells. In words: Confocal imaging of Smad2 localization. It counts as cell-based. As to the method:
Supplemental Fig. S1. Confocal images of endogenous Smad2 and exogenously expressed EGFP-Smad2 in HeLa cells before (A) and 10 min after (B) TGF-β stimulation.
Endogenous Smad2 images were obtained by immunostaining using the Smad2-specific antibody. 10 ng/ml TGF-β was used for stimulation. Scale bars indicate 10 μm.
Supplemental Fig. S2. Suppression of endogenous Smad2 expression in HeLa cells by siRNA.
Western blot analysis showing that expression of endogenous Smad2 in HeLa cells was successfully suppressed by siRNA. 30 nM siRNA-3 was routinely used for knockdown experiments. For re-introduction of mouse Smad2 to these cells, see Fig. 5A. Glyceraldehyde 3-phosphate dehydrogenase (GAPDH) was used as a gel loading control. […]

B1: Smad2 WT: bacterially expressed full-length Smad2 wild-type (protein)
chain: MSSILPFTPPVVKRLLGWKKSAGGSGGAGGGEQNGQEEKWCEKAVKSLVKKLKKTGRLDELEKAITTQNCNTKCVTIPSTCSEIWGLSTANTVDQWDTTGLYSFSEQTRSLDGRLQVSHRKGLPHVIYCRLWRWPDLHSHHELKAIENCEYAFNLKKDEVCVNPYHYQRVETPVLPPVLVPRHTEILTELPPLDDYTHSIPENTNFPAGIEPQSNYIPETPPPGYISEDGETSDQQLNQSMDTGSPAELSPTTLSPVNHSLDLQPVTYSEPAFWCSIAYYELNQRVGETFHASQPSLTVDGFTDPSNSERFCLGLLSNVNRNATVEMTRRHIGRGVRLYYIGGEVFAECLSDSAIFVQSPNCNQRYGWHPATVCKIPPGCNLKIFNNQEFAALLAQSVNQGFEAVYQLTRMCTIRMSFVKGWGAEYRRQTVTSTPCWIELHLNGPLQWLDKVLTQMGSPSVRCSSMS
modifications: left off: His6, N-terminal, state not stated
notes: bacterially expressed full-length Smad2 wild-type
Consider B1, for which, in experiment [1] (1 μM Smad2), the RUmax worked out at 400 ± 20. Moreover, the Kd in experiment [1] (SPR, L1 chip, 23 °C, 20 mM Tris, pH 7.4, 0.16 M NaCl, average ±S.D., n = 3, read-out: Kd for lipid binding, PC/PS/PI(3)P) amounted to 210 ± 34 nM. For the same molecule, the PtdInsP selectivity result in “SPR PtdInsP selectivity” is reported as “significant degree of selectivity for POPC/POPS/PI(4,5)P2 (77:20:3) over other PtdInsP-containing vesicles”.

B2: EGFP-Smad2 WT: mouse EGFP-Smad2 wild type transfected into HeLa cells (protein, UniProt Q62432 2-467, looked up)
Mothers against …: SSILPFTPPVVKRLLGWKKSAGGSGGAGGGEQNGQEEKWCEKAVKSLVKKLKKTGRLDELEKAITTQNCNTKCVTIPSTCSEIWGLSTANTVDQWDTTGLYSFSEQTRSLDGRLQVSHRKGLPHVIYCRLWRWPDLHSHHELKAIENCEYAFNLKKDEVCVNPYHYQRVETPVLPPVLVPRHTEILTELPPLDDYTHSIPENTNFPAGIEPQSNYIPETPPPGYISEDGETSDQQLNQSMDTGSPAELSPTTLSPVNHSLDLQPVTYSEPAFWCSIAYYELNQRVGETFHASQPSLTVDGFTDPSNSERFCLGLLSNVNRNATVEMTRRHIGRGVRLYYIGGEVFAECLSDSAIFVQSPNCNQRYGWHPATVCKIPPGCNLKIFNNQEFAALLAQSVNQGFEAVYQLTRMCTIRMSFVKGWGAEYRRQTVTSTPCWIELHLNGPLQWLDKVLTQMGSPSVRCSSMS
modifications: EGFP fusion
notes: mouse EGFP-Smad2 wild type transfected into HeLa cells
With B2, the “localization in unstimulated cells” value in the experiment with HeLa cells is given as “mostly distributed in the cytoplasm with little prelocalization to the PM”.
